Patent publication US20080193964A1, “Compositions and methods for regulation of calcium-dependent signaling in brain” (priority 2002, published 2008)

Tests used:
DARPP-21 phosphorylation = conditions: treatment of mice; cited from earlier work
calmodulin [1] = biological target: T1, calmodulin (Rattus norvegicus, UniProt P0DP29); test: Yeast two-hybrid protein-protein binding assay; conditions: yeast strain EGY48; FIG. 2
T1 construct: host or cells: yeast strain EGY48
Protocol: Protein-protein binding assays were performed in a yeast two-hybrid system using the DupLexA system (Origene Technologies, Rockville, Md.) in yeast strain EGY48. To generate a fusion protein of LexA and DARPP-21, DARPP-21 cDNA was subcloned into EcoRI-XhoI sites of pEG202 bait vector. Prey vector contained oligo-dT primed rat brain library (Origene Technologies, Rockville, Md.) attached to the B42 acid blob domain and governed by a gal-1 promoter.
Yeast were sequentially transformed with the bait, pSH18-34 lacZ-harboring prey cDNA library-containing plasmids using the lithium acetate protocol. Efficiency of transformation was estimated to be 10^6 with a library complexity of 4×10^6 individual clones. Positive clones appeared 3 to 7 days after transformation. Bait-prey interaction was assessed by intensity of growth on a (gal)(-his, -trp, -ura, -leu) medium. Specificity of the interaction was verified by X-gal staining and mating assay (Origene Technologies, Rockville, Md.).
To confirm calmodulin-DARPP-21 interactions and compare calmodulin binding to DARPP-21 mutants, EGY48 yeast cells were transformed with the bait, prey and lacZ reporter plasmids and plated onto (glu)(-his, -trp, -ura) plates. Four days later, selected colonies were transferred into a liquid (+raf)(-his, -trp, -ura) medium and grown overnight at 30 C with vigorous shaking. […]

calmodulin [2] = biological target: T2, calmodulin (Bos taurus, UniProt P62157); test: Affinity chromatography using calmodulin-Sepharose; type: binding; conditions: 0.5 mM CaCl2 buffer versus 1 mM EGTA buffer; FIG. 5
T2 construct: purchased Amersham Pharmacia Biotech
Protocol: DARPP-21 (0.5 ml of 0.1 mg/ml) was applied to 0.5 ml of 1 mg/ml calmodulin-Sepharose (Amersham Pharmacia Biotech, Piscataway, N.J.) in buffer B (100 mM NaCl, 20 mM Tris pH 7.5, 1 mM MgCl2, 0.5 mM CaCl2, 1 mM DTT) or buffer C containing 1 mM EGTA instead of 0.5 mM CaCl2. Beads were washed with several volumes of buffer D containing 300 mM NaCl and 20 mM Tris pH 7.5 and bound proteins were eluted with 10 mM EGTA/20 mM Tris pH 7.5.

calcineurin = test: In vitro inhibition of calcineurin phosphatase activity; type: biochemical
Protocol: (§1) For preparations of phosphorylated DARPP-21, the protein was phosphorylated in vitro using [γ-^32P]ATP with the catalytic subunit of PKA as described (Caporaso et al. 2000. Neuropharmacology 39:1636-1643). The stoichiometry of phosphorylation was determined to be 95% for DARPP-21.
(§2) DARPP-21 was phosphorylated as described in Section 6.1. In vitro inhibition studies on the kinase and phosphatase activities of CaMKI and calcineurin, respectively, were performed according to standard techniques in the art.

CaMKI = test: In vitro inhibition of CaMKI kinase activity; type: biochemical
Protocol: as §1, §2

[3] = same concentration as phosphorylated DARPP-21

CN[C@@H](C)Cc1ccccc1 [methamphetamine]
DARPP-21 phosphorylation in vivo (DARPP-21 phosphorylation): increased

B1: Ser^55 to alanine in DARPP-21: DARPP-21 mutant with Ala substitution for Ser^55, LexA fusion in yeast (protein, UniProt Q9UBL0 2-812, looked up, variant S55A)
cAMP-regulated phosphoprotein …: SEQGDLNQAIAEEGGTEQETATPENGIVKSESLDEEEKLELQRRLEAQNQERRKAKSGAGKGKLTRSLAVCEESSARPGGESLQDQESIHLQLSSFSSLQEEDKSRKDDSEREKEKDKNKDKTSEKPKIRMLSKDCSQEYTDSTGIDLHEFLINTLKNNSRDRMILLKMEQEIIDFIADNNNHYKKFPQMSSYQRMLVHRVAAYFGLDHNVDQTGKSVIINKTSSTRIPEQRFCEHLKDEKGEESQKRFILKRDNSSIDKEDNQQNRMHPFRDDRRSKSIEEREEEYQRVRERIFAHDSVCSQESLFVENSRLLEDSNICNETYKKRQLFRGNRDGSGRTSGSRQSSSENELKWSDHQRAWSSTDSDSSNRNLKPAMTKTASFGGITVLTRGDSTSSTRSTGKLSKAGSESSSSAGSSGSLSRTHPPLQSTPLVSGVAAGSPGCVPYPENGIGGQVAPSSTSYILLPLEAATGIPPGSILLNPHTGQPFVNPDGTPAIYNPPTSQQPLRSAMVGQSQQQPPQQQPSPQPQQQVQPPQPQMAGPLVTQRDDVATQFGQMTLSRQSSGETPEPPSGPVYPSSLMPQPAQQPSYVIASTGQQLPTGGFSGSGPPISQQVLQPPPSPQGFVQQPPPAQMPVYYYPSGQYPTSTTQQYRPMAPVQYNAQRSQQMPQAAQQAGYQPVLSGQQGFQGLIGVQQPPQSQNVINNQQGTPVQSVMVSYPTMSSYQVPMTQGSQGLPQQSYQQPIMLPNQAGQGSLPATGMPVYCNVTPPTPQNNLRLIGPHCPSSTVPVMSASCRTNCASMSNAGWQVKF
modifications: LexA fusion
notes: DARPP-21 mutant with Ala substitution for Ser^55, LexA fusion in yeast
interaction with calmodulin in yeast (calmodulin [1]): completely inhibited the interaction with calmodulin

B2: DARPP-21: neuronal 21 kDa dopamine- and cAMP-regulated phosphoprotein (protein, UniProt Q9UBL0 2-812, looked up)
cAMP-regulated phosphoprotein …: SEQGDLNQAIAEEGGTEQETATPENGIVKSESLDEEEKLELQRRLEAQNQERRKSKSGAGKGKLTRSLAVCEESSARPGGESLQDQESIHLQLSSFSSLQEEDKSRKDDSEREKEKDKNKDKTSEKPKIRMLSKDCSQEYTDSTGIDLHEFLINTLKNNSRDRMILLKMEQEIIDFIADNNNHYKKFPQMSSYQRMLVHRVAAYFGLDHNVDQTGKSVIINKTSSTRIPEQRFCEHLKDEKGEESQKRFILKRDNSSIDKEDNQQNRMHPFRDDRRSKSIEEREEEYQRVRERIFAHDSVCSQESLFVENSRLLEDSNICNETYKKRQLFRGNRDGSGRTSGSRQSSSENELKWSDHQRAWSSTDSDSSNRNLKPAMTKTASFGGITVLTRGDSTSSTRSTGKLSKAGSESSSSAGSSGSLSRTHPPLQSTPLVSGVAAGSPGCVPYPENGIGGQVAPSSTSYILLPLEAATGIPPGSILLNPHTGQPFVNPDGTPAIYNPPTSQQPLRSAMVGQSQQQPPQQQPSPQPQQQVQPPQPQMAGPLVTQRDDVATQFGQMTLSRQSSGETPEPPSGPVYPSSLMPQPAQQPSYVIASTGQQLPTGGFSGSGPPISQQVLQPPPSPQGFVQQPPPAQMPVYYYPSGQYPTSTTQQYRPMAPVQYNAQRSQQMPQAAQQAGYQPVLSGQQGFQGLIGVQQPPQSQNVINNQQGTPVQSVMVSYPTMSSYQVPMTQGSQGLPQQSYQQPIMLPNQAGQGSLPATGMPVYCNVTPPTPQNNLRLIGPHCPSSTVPVMSASCRTNCASMSNAGWQVKF
binding to calmodulin-Sepharose (calmodulin [2]): detected only in the calcium-equilibrated column

B3: unphosphorylated DARPP-21: neuronal 21 kDa dopamine- and cAMP-regulated phosphoprotein, not phosphorylated (protein, UniProt Q9UBL0 2-812, looked up)
cAMP-regulated phosphoprotein …: SEQGDLNQAIAEEGGTEQETATPENGIVKSESLDEEEKLELQRRLEAQNQERRKSKSGAGKGKLTRSLAVCEESSARPGGESLQDQESIHLQLSSFSSLQEEDKSRKDDSEREKEKDKNKDKTSEKPKIRMLSKDCSQEYTDSTGIDLHEFLINTLKNNSRDRMILLKMEQEIIDFIADNNNHYKKFPQMSSYQRMLVHRVAAYFGLDHNVDQTGKSVIINKTSSTRIPEQRFCEHLKDEKGEESQKRFILKRDNSSIDKEDNQQNRMHPFRDDRRSKSIEEREEEYQRVRERIFAHDSVCSQESLFVENSRLLEDSNICNETYKKRQLFRGNRDGSGRTSGSRQSSSENELKWSDHQRAWSSTDSDSSNRNLKPAMTKTASFGGITVLTRGDSTSSTRSTGKLSKAGSESSSSAGSSGSLSRTHPPLQSTPLVSGVAAGSPGCVPYPENGIGGQVAPSSTSYILLPLEAATGIPPGSILLNPHTGQPFVNPDGTPAIYNPPTSQQPLRSAMVGQSQQQPPQQQPSPQPQQQVQPPQPQMAGPLVTQRDDVATQFGQMTLSRQSSGETPEPPSGPVYPSSLMPQPAQQPSYVIASTGQQLPTGGFSGSGPPISQQVLQPPPSPQGFVQQPPPAQMPVYYYPSGQYPTSTTQQYRPMAPVQYNAQRSQQMPQAAQQAGYQPVLSGQQGFQGLIGVQQPPQSQNVINNQQGTPVQSVMVSYPTMSSYQVPMTQGSQGLPQQSYQQPIMLPNQAGQGSLPATGMPVYCNVTPPTPQNNLRLIGPHCPSSTVPVMSASCRTNCASMSNAGWQVKF
effect on calcineurin activity (calcineurin; [3]): no effect | effect on CaMKI activity (CaMKI; [3]): no effect

B4: Phosphorylated DARPP-21: DARPP-21 phosphorylated in vitro with the catalytic subunit of PKA (protein, UniProt Q9UBL0 2-812, looked up)
cAMP-regulated phosphoprotein …: SEQGDLNQAIAEEGGTEQETATPENGIVKSESLDEEEKLELQRRLEAQNQERRKSKSGAGKGKLTRSLAVCEESSARPGGESLQDQESIHLQLSSFSSLQEEDKSRKDDSEREKEKDKNKDKTSEKPKIRMLSKDCSQEYTDSTGIDLHEFLINTLKNNSRDRMILLKMEQEIIDFIADNNNHYKKFPQMSSYQRMLVHRVAAYFGLDHNVDQTGKSVIINKTSSTRIPEQRFCEHLKDEKGEESQKRFILKRDNSSIDKEDNQQNRMHPFRDDRRSKSIEEREEEYQRVRERIFAHDSVCSQESLFVENSRLLEDSNICNETYKKRQLFRGNRDGSGRTSGSRQSSSENELKWSDHQRAWSSTDSDSSNRNLKPAMTKTASFGGITVLTRGDSTSSTRSTGKLSKAGSESSSSAGSSGSLSRTHPPLQSTPLVSGVAAGSPGCVPYPENGIGGQVAPSSTSYILLPLEAATGIPPGSILLNPHTGQPFVNPDGTPAIYNPPTSQQPLRSAMVGQSQQQPPQQQPSPQPQQQVQPPQPQMAGPLVTQRDDVATQFGQMTLSRQSSGETPEPPSGPVYPSSLMPQPAQQPSYVIASTGQQLPTGGFSGSGPPISQQVLQPPPSPQGFVQQPPPAQMPVYYYPSGQYPTSTTQQYRPMAPVQYNAQRSQQMPQAAQQAGYQPVLSGQQGFQGLIGVQQPPQSQNVINNQQGTPVQSVMVSYPTMSSYQVPMTQGSQGLPQQSYQQPIMLPNQAGQGSLPATGMPVYCNVTPPTPQNNLRLIGPHCPSSTVPVMSASCRTNCASMSNAGWQVKF
modifications: phospho-Ser55
notes: DARPP-21 phosphorylated in vitro with the catalytic subunit of PKA
IC50 (calcineurin; in vitro, FIG. 7): 1000 nM | IC50 (CaMKI; in vitro, FIG. 6): 1200 nM
